In PMC10333360, “Establishing mammalian GLUT kinetics and lipid composition influences in a reconstituted-liposome system” (Nature Communications, 2023):

B1: hGLUT3 (Homo sapiens) (protein)
chain: MGTQKVTPALIFAITVATIGSFQFGYNTGVINAPEKIIKEFINKTLTDKGNAPPSEVLLTSLWSLSVAIFSVGGMIGSFSVGLFVNRFGRRNSMLIVNLLAVTGGCFMGLCKVAKSVEMLILGRLVIGLFCGLCTGFVPMYIGEISPTALRGAFGTLNQLGIVVGILVAQIFGLEFILGSEELWPLLLGFTILPAILQSAALPFCPESPRFLLINRKEEENAKQILQRLWGTQDVSQDIQEMKDESARMSQEKQVTVLELFRVSSYRQPIIISIVLQLSQQLSGINAVFYYSTGIFKDAGVQEPIYATIGAGVVNTIFTVVSLFLVERAGRRTLHMIGLGGMAFCSTLMTVSLLLKDNYNGMSFVCIGAILVFVAFFEIGPGPIPWFIVAELFSQGPRPAAMAVAGCSNWTSNFLVGLLFPSAAHYLGAYVFIIFTGFLITFLAFTFFKVPETRGRTFEDITRAFEGQAHGADRSGKDGVMEMNSIEPAKETTTNV
B2: GLUT1 (Homo sapiens) (protein)
chain: MEPSSKKLTGRLMLAVGGAVLGSLQFGYNTGVINAPQKVIEEFYNQTWVHRYGESILPTTLTTLWSLSVAIFSVGGMIGSFSVGLFVNRFGRRNSMLMMNLLAFVSAVLMGFSKLGKSFEMLILGRFIIGVYCGLTTGFVPMYVGEVSPTALRGALGTLHQLGIVVGILIAQVFGLDSIMGNKDLWPLLLSIIFIPALLQCIVLPFCPESPRFLLINRNEENRAKSVLKKLRGTADVTHDLQEMKEESRQMMREKKVTILELFRSPAYRQPILIAVVLQLSQQLSGINAVFYYSTSIFEKAGVQQPVYATIGSGIVNTAFTVVSLFVVERAGRRTLHLIGLAGMAGCAILMTIALALLEQLPWMSYLSIVAIFGFVAFFEVGPGPIPWFIVAELFSQGPRPAAIAVAGFSNWTSNFIVGMCFQYVEQLCGPYVFIIFTVLLVLFFIFTYFKVPETKGRTFDEIASGFRQGGASQSDKTPEELFHPLGADSQV
B3: hGLUT4 (Homo sapiens) (protein)
chain: MPSGFQQIGSEDGEPPQQRVTGTLVLAVFSAVLGSLQFGYNIGVINAPQKVIEQSYNETWLGRQGPEGPSSIPPGTLTTLWALSVAIFSVGGMISSFLIGIISQWLGRKRAMLVNNVLAVLGGSLMGLANAAASYEMLILGRFLIGAYSGLTSGLVPMYVGEIAPTHLRGALGTLNQLAIVIGILIAQVLGLESLLGTASLWPLLLGLTVLPALLQLVLLPFCPESPRYLYIIQNLEGPARKSLKRLTGWADVSGVLAELKDEKRKLERERPLSLLQLLGSRTHRQPLIIAVVLQLSQQLSGINAVFYYSTSIFETAGVGQPAYATIGAGVVNTVFTLVSVLLVERAGRRTLHLLGLAGMCGCAILMTVALLLLERVPAMSYVSIVAIFGFVAFFEIGPGPIPWFIVAELFSQGPRPAAMAVAGFSNWTSNFIIGMGFQYVAEAMGPYVFLLFAVLLLGFFIFTFLRVPETRGRTFDQISAAFHRTPSLLEQEVKPSTELEYLGPDEND

Tests used:
purified protein = substrate: OC[C@H]1OC(O)[C@H](O)[C@@H](O)[C@@H]1O; experiment: purified protein
[1] = substrate: OC[C@H]1OC(O)[C@H](O)[C@@H](O)[C@@H]1O; experiment: zero-trans transport kinetics in proteoliposomes (KM); format: biochemical, Homo sapiens

Protein	Km (purified protein)	Km [1]
B1	1400 µM	–
B2	2000 µM	–
B3	–	8200 µM
